Test results reported in IntAct's records for PubMed 22262837.

B1: Kin of IRRE-like protein 1 (Homo sapiens), Q96J84 (parent)
chain: MLSLLVWILTLSDTFSQGTQTRFSQEPADQTVVAGQRAVLPCVLLNYSGIVQWTKDGLALGMGQGLKAWPRYRVVGSADAGQYNLEITDAELSDDASYECQATEAALRSRRAKLTVLIPPEDTRIDGGPVILLQAGTPHNLTCRAFNAKPAATIIWFRDGTQQEGAVASTELLKDGKRETTVSQLLINPTDLDIGRVFTCRSMNEAIPSGKETSIELDVHHPPTVTLSIEPQTVQEGERVVFTCQATANPEILGYRWAKGGFLIEDAHESRYETNVDYSFFTEPVSCEVHNKVGSTNVSTLVNVHFAPRIVVDPKPTTTDIGSDVTLTCVWVGNPPLTLTWTKKDSNMVLSNSNQLLLKSVTQADAGTYTCRAIVPRIGVAEREVPLYVNGPPIISSEAVQYAVRGDGGKVECFIGSTPPPDRIAWAWKENFLEVGTLERYTVERTNSGSGVLSTLTINNVMEADFQTHYNCTAWNSFGPGTAIIQLEEREVLPVGIIAGATIGASILLIFFFIALVFFLYRRRKGSRKDVTLRKLDIKVETVNREPLTMHSDREDDTASVSTATRVMKAIYSSFKDDVDLKQDLRCDTIDTREEYEMKDPTNGYYNVRAHEDRPSSRAVLYADYRAPGPARFDGRPSSRLSHSSGYAQLNTYSRGPASDYGPEPTPPGPAAPAGTDTTSQLSYENYEKFNSHPFPGAAGYPTYRLGYPQAPPSGLERTPYEAYDPIGKYATATRFSYTSQHSDYGQRFQQRMQTHV

Variants of: B1
Conditions: with zo1_human TJP1, Q07157
Chain of zo1_human TJP1, Q07157 (Q07157 whole entry): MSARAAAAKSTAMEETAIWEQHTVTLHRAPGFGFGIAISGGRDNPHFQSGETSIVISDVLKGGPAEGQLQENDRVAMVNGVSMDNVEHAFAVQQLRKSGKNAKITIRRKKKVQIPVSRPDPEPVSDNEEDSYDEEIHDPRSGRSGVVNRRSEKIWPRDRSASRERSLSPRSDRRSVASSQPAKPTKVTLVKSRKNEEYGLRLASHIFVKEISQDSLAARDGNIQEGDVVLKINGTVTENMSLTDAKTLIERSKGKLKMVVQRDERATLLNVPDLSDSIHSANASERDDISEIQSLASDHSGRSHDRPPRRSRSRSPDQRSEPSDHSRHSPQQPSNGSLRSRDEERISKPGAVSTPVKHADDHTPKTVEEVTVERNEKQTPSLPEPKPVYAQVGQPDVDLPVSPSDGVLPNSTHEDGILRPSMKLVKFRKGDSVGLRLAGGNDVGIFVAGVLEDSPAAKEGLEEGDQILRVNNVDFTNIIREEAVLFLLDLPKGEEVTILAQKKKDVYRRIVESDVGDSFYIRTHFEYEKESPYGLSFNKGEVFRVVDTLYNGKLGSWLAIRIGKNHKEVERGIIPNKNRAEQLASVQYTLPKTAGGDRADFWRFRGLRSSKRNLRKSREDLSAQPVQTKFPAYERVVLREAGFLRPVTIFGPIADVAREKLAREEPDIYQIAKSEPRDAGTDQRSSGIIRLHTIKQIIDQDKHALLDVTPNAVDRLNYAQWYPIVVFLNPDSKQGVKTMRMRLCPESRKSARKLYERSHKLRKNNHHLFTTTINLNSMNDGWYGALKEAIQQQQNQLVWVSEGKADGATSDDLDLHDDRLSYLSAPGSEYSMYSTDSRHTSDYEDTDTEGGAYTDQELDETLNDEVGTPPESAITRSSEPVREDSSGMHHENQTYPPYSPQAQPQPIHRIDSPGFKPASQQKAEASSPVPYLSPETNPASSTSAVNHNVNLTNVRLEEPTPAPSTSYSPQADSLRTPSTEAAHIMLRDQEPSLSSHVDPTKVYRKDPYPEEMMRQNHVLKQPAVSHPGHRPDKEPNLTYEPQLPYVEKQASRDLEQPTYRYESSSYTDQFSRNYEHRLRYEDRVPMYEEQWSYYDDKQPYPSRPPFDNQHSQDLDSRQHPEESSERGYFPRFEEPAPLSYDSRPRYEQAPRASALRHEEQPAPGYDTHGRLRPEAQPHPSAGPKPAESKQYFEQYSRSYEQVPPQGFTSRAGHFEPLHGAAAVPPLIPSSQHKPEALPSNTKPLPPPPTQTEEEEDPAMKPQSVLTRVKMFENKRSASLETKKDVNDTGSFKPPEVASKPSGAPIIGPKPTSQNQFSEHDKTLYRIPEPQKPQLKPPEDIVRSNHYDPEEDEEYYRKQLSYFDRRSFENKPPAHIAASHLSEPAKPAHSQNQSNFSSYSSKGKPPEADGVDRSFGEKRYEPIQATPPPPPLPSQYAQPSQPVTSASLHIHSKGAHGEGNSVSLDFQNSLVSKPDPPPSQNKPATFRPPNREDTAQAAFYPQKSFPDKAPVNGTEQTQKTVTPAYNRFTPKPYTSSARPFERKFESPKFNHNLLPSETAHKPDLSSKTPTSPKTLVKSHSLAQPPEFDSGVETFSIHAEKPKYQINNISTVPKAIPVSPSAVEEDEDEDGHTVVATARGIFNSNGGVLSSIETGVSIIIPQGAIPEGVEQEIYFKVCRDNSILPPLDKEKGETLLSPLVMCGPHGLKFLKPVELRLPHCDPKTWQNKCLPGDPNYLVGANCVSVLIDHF

| effect of a mutation on the interaction | Variant |
| --- | --- |
| decreasing interaction strength | K729A |
| decreasing interaction strength | Y730A |
